Here are results for one molecule from publication PMC12215968.

This assay deals with T1, nucleoside-disphosphate kinase B (NME2) (human (endogenous in HEK293)), P22392.
T1 chain: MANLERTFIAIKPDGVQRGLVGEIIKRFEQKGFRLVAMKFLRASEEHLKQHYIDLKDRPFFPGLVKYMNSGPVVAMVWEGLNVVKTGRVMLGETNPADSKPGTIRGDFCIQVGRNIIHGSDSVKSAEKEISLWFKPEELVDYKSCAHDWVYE
The assay can be described thus: cross-linking; in vivo: intact 293 HBTH-CSN2 cells, 1 mM TSTO in PBS pH 7.4, 1 h, room temperature; SEC-HpHt separation of peptides, LC-MSn. The settings on record: remark: other sources report otherwise.

B1: nucleoside-disphosphate kinase B (NME2), P22392 1-152 (natural protein)
chain: T1 chain
The term stoichiometry N denotes the number of molecules, sites or subunits per partner or assembly. For B1, the stoichiometry N was determined as 3.
